Where a chain is given by its changes, count along the chain named.
B1: 376_B06 (antibody, V domains shown)
VH: EVQLLESGGGLVQPGGSLRLSCAASGFTFSSYSMNWVRQAPGKGLEWVAGINYNSGYKGYADSVKGRFTISRDNSKNTLYLQMNSLRAEDTAVYYCARSATWHDTHLDYWGQGTLVTVSS
VL: DIQMTQSPSSLSASVGDRVTITCRASQSILTYLNWYQQKPGKAPKLLIYAATSRASGVPSRFSGSGSGTDFTLTISSLQPEDFATYYCQQSYDLPLTFGGGTKVEIK
B2: 365_D05 (antibody, V domains shown)
VH: B1 VH with S30D, S55G, K58T, G59S
VL: B1 VL with L33V, D93N, L94S
B3: 365_F07 (antibody, V domains shown)
VH: B1 VH with A49S, G50N, S55G, G59S, H106A
VL: B1 VL with T31S, L33V, L47V
B4: 366_A05 (antibody, V domains shown)
VH: B1 VH with K58T
VL: B1 VL with L33V, L47V, R54L, D93N, L94T
B5: 367_A01 (antibody, V domains shown)
VH: B1 VH with G50S, S55G, K58T
VL: B1 VL
B6: 367_G07 (antibody, V domains shown)
VH: B1 VH with S30D, G50N, S55G, K58T
VL: B1 VL with L33V, L94N
B7: 369_A10 (antibody, V domains shown)
VH: B1 VH with S30D, K58T
VL: B1 VL with T31S, D93E
B8: 369_G07 (antibody, V domains shown)
VH: B1 VH with S55G, K58T, G59S
VL: B1 VL with L33V, L47V, L94N
B9: 370_E07 (antibody, V domains shown)
VH: B1 VH with S30D, G50N, S55G, K58T
VL: B1 VL with L94N
B10: 372_D04 (antibody, V domains shown)
VH: B1 VH with G50N, K58T
VL: B1 VL with R54L, A55H
B11: 373_B08 (antibody, V domains shown)
VH: B1 VH with S30D, G50N
VL: B1 VL with L47V, R54L, D93E, L94N
B12: 373_B11 (antibody, V domains shown)
VH: B1 VH with G50N
VL: B1 VL with T31S, L94N
B13: 373_E02 (antibody, V domains shown)
VH: B1 VH with S30D, S33G, N35H, A49S, S55G
VL: not shown
B14: 373_E06 (antibody, V domains shown)
VH: B1 VH with S30D, G59S
VL: B1 VL with T31R, R54L, A55H, L94N
B15: 373_G05 (antibody, V domains shown)
VH: B1 VH with S55G, K58T, G59S
VL: B1 VL with T31S, R54L, D93E
B16: 374_A11 (antibody, V domains shown)
VH: B1 VH with S31D, G50N
VL: B1 VL with T31S, L33V, L47V, D93S, L94S
B17: 374_C05 (antibody, V domains shown)
VH: B1 VH with S30D, G59S
VL: B1 VL with L30I, T31R, L47V, L94N
B18: 374_C11 (antibody, V domains shown)
VH: B1 VH
VL: B1 VL with D93E, L94S
B19: 371_E12 (antibody, V domains shown)
VH: B1 VH with S30D, A49S, G59S, S99G
VL: B1 VL with T31S, R54L, L94T
B20: 371_F09 (antibody, V domains shown)
VH: B1 VH with S55G, K58T, G59S, S99G
VL: B1 VL with L94N
B21: 372_B09 (antibody, V domains shown)
VH: B1 VH with A49S, G50S, K58T, G59S, S99G
VL: B1 VL with D93E, L94T
B22: 373_C07 (antibody, V domains shown)
VH: B1 VH with S30D, K58T, G59S, S99G, T101N
VL: B1 VL with L47V, D93E, L94T
B23: 373_F07 (antibody, V domains shown)
VH: B1 VH with A49S, G59S, S99G
VL: B1 VL with T31S, R54L, D93E, L94T
B24: 373_G08 (antibody, V domains shown)
VH: B1 VH with S30D, A49S, G50N, S55G, K58T, G59S, S99G, T101N, H106A
VL: B1 VL with R54L, L94S
B25: 373_H03 (antibody, V domains shown)
VH: B1 VH with A49S, G59S, S99G, T101N, H106A
VL: B1 VL with T31S, A51T, D93E, L94N
B26: 374_B03 (antibody, V domains shown)
VH: B1 VH with S30D, A49S, S55G, K58T, G59S, S99G, T101N, H106A
VL: B1 VL with L47V, L94S
B27: 374_C01 (antibody, V domains shown)
VH: B1 VH with S30D, S33G, A49S, G59S, S99G, T101N, H106A
VL: B1 VL with D93E, L94T
B28: 374_C09 (antibody, V domains shown)
VH: B1 VH with S30D, S33G, A49S, G50S, S55G, S99G, T101N
VL: B1 VL with L30V, T31S, L47V, D93E
B29: 374_C12 (antibody, V domains shown)
VH: B1 VH with S55G, G59S, S99G, T101N, H106A
VL: B1 VL with L47V, Y92D, D93N, L94S
B30: 374_D05 (antibody, V domains shown)
VH: B1 VH with S30D, A49S, K58T, S99G, T101N
VL: B1 VL with L94T
B31: 374_D10 (antibody, V domains shown)
VH: B1 VH with S33G, N35H, G50S, S55G, K58T, G59S, S99G, T101N
VL: B1 VL with L33V, L94N
B32: 374_G08 (antibody, V domains shown)
VH: B1 VH with S30D, A49S, S55G, K58T, G59S, S99G, T101N, H106A
VL: B1 VL with L33V, L47V, L94S
B33: 375_A07 (antibody, V domains shown)
VH: B1 VH with S30D, A49S, G50S, K58T, S99G, T101N
VL: B1 VL with L94T
B34: 375_A12 (antibody, V domains shown)
VH: B1 VH with A49S, G59S, S99G, T101N, H106A
VL: B1 VL with T31S, L47V, A51V, D93E, L94T
B35: 375_E10 (antibody, V domains shown)
VH: B1 VH with A49S, S55G, K58T, G59S, S99G, T101N, H106A
VL: B1 VL with T31S, L47V, L94N
B36: 375_F02 (antibody, V domains shown)
VH: B1 VH with G50S, K58T, G59S, S99G, T101N
VL: B1 VL with T31S, L94S
B37: 375_G05 (antibody, V domains shown)
VH: B1 VH with S55G, K58T, G59S, S99G, T101N, H106A
VL: B1 VL with L30V, T31S, A51V, L94S
B38: 375_H05 (antibody, V domains shown)
VH: B1 VH with A49S, G50N, S55G, K58T, S99G, T101N, H106A
VL: B1 VL with T31S, L33V, L94T
B39: 376_C08 (antibody, V domains shown)
VH: B1 VH with S30D, K58T, S99G, T101N
VL: not shown
B40: 376_F01 (antibody, V domains shown)
VH: B1 VH with S31D, S55G, G59S, S99G, T101N, H106A
VL: not shown
B41: 376_F06 (antibody, V domains shown)
VH: B1 VH with S33G, A49S, S55G, K58T, S99G, T101N
VL: B1 VL with L33V, L47V, D93E, L94T
B42: 376_H01 (antibody, V domains shown)
VH: B1 VH with S31D, S55G, S99G, T101N, H106A
VL: B1 VL with D93S, L94T
B43: 376_H11 (antibody, V domains shown)
VH: B1 VH with S30D, A49S, G50N, S55G, K58T, S99G, T101N, H106A
VL: B1 VL with L30S, T31R, A51V, R54L, D93E, L94S

Molecular target: Human ACVR2A (on cells) (human, UniProt P27037 20-513)
Assay: cell-based or functional assay

Sequence of Human ACVR2A (on cells) (P27037 20-513): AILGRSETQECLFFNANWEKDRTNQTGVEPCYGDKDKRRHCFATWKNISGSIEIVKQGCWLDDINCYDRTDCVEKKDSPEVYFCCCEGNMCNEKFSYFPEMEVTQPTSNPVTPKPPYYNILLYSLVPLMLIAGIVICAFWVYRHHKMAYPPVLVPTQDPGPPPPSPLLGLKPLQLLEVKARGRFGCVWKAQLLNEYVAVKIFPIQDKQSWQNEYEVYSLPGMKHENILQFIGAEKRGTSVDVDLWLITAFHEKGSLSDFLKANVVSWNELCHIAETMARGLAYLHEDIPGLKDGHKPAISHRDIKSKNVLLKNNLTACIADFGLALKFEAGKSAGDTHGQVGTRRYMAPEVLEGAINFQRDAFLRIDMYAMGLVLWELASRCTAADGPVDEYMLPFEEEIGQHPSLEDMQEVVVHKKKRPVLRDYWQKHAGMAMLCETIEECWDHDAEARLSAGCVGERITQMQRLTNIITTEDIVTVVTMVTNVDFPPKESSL

Row | Binder | Phospho-SMAD3 Human Skeletal Muscle GDF8 (AlphaLisa, primary human myotubes)
1 | B1 | 0.0042
2 | B2 | 0.0209
3 | B3 | 0.011
4 | B4 | 0.0244
5 | B5 | 0.0065
6 | B6 | 0.0068
7 | B7 | 0.0076
8 | B8 | 0.012
9 | B9 | 0.0046
10 | B10 | 0.0114
11 | B11 | 0.0102
12 | B12 | 0.0008
13 | B13 | 0.0049
14 | B14 | 0.0005
15 | B15 | 0.0059
16 | B16 | 0.0086
17 | B17 | 0.0124
18 | B18 | 0.0266

Molecular target: ACVR2A on primary human myotubes (human, UniProt P27037 20-513)
Assay: cell-based or functional assay

Sequence of ACVR2A on primary human myotubes (P27037 20-513): as above

Row | Binder | Phospho-SMAD3 Human Skeletal Muscle GDF8
19 | B19 | 0.0374
20 | B20 | 0.0311
21 | B21 | 0.0182
22 | B22 | 0.0048
23 | B23 | 0.0069
24 | B24 | 0.0057
25 | B25 | 0.0129
26 | B26 | 0.027
27 | B27 | 1.11
28 | B28 | 0.189
29 | B29 | 0.027
30 | B30 | 0.0177
31 | B31 | 0.126
32 | B32 | 0.034
33 | B33 | 0.014
34 | B34 | 0.0469
35 | B35 | 0.0091
36 | B36 | 0.0076
37 | B37 | 0.0052
38 | B38 | 0.0346
39 | B39 | 0.0605
40 | B40 | 0.595
41 | B41 | 0.0544
42 | B42 | 0.0562
43 | B43 | 0.0042

Source: patent US20210380703A1 (RIGEL PHARMACEUTICALS, published 2021)
